Data on one molecule can be found in paper PMC10830416.

In this data set the target is LINE-1 ORF2p (L1 ORF2p), wild type (Homo sapiens, UniProt O00370 1-1275). Description: cryo-EM structure (3.2 A); dTTP bound as incoming nucleotide; dTTP, dATP, ddGTP 1 mM each; 10 mM MgCl2; BS3 cross-linked; Cryo-EM: 600 nm ORF2p, RNA-DNA duplex 2:1 over protein, 30 mM K-HEPES pH 7.9, 150 mM KCl, 10 mM MgCl2, 5 mM EGTA, 1 mM DTT, 37 C 30 s, then 4 mM BS3 on ice 5 mi.
Chain of LINE-1 ORF2p (L1 ORF2p), wild type (O00370 whole entry): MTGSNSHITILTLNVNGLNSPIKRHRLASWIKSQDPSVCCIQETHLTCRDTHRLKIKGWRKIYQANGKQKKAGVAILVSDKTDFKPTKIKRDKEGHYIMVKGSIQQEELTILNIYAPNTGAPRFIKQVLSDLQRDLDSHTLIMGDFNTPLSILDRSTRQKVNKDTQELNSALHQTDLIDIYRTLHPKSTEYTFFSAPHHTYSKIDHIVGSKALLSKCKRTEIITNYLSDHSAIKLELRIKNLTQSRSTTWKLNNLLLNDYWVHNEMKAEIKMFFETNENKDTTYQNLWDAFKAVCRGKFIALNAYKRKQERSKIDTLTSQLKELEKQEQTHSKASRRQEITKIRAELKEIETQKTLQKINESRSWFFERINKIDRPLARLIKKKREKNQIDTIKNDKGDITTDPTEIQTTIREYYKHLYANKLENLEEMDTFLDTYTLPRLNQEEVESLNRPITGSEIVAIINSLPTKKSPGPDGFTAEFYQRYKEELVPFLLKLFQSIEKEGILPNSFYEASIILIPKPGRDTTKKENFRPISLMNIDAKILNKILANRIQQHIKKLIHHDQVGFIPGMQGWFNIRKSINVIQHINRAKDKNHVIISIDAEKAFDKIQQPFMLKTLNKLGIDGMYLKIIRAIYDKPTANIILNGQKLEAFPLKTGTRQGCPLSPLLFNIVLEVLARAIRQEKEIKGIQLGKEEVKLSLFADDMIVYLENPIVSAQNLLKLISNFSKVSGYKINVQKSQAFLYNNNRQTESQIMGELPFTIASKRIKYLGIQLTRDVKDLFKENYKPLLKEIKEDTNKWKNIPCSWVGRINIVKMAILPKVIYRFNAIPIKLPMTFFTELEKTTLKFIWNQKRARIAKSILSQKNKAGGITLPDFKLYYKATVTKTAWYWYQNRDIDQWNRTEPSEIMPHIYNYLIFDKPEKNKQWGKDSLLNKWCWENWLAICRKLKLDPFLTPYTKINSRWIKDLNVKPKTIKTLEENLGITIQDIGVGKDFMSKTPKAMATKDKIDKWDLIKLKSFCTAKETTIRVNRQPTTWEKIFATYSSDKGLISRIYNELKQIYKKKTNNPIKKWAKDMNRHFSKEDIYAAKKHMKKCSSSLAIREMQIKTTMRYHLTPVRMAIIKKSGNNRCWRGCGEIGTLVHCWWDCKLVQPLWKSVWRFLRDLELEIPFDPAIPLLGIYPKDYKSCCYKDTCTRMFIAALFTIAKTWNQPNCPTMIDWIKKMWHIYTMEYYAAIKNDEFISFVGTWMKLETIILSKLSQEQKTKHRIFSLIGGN

B1: Synthetic template RNA (74 nt) with 8 nt DNA primer extended to 13 nt, ending in ddG (mixed)
RNA: GCAGACUGCGUAGGCGUGCAGGAACCUGCACGCCUACGCAGUCUGCAAAAAAAAAAAAAAACAAUAUCGGCGCG
DNA: CGCGCCGATATTG
modifications: 3' dideoxyguanosine on the cDNA strand
For B1, the binding result is “binds”.
